Measured values: the supplement of paper PMC5998384

System: HeLa Kyoto
Test: thermal stability score vs G1/S (z-score of summed log2 fold changes over temperatures); higher = more thermally stable than in G1/S
[1] = cell cycle stage: early G1 (4.5 h after nocodazole release)
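Further: synchronized HeLa Kyoto cells, proteins quantified by TMT10plex mass spectrometry, three biological replicates, mitosis taken 0.5 h after nocodazole release, G1/S directly after double thymidine block.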

| Sequence | thermal stability score [1] | thermal stability score (cell cycle stage: mitosis) |
| --- | --- | --- |
| MGNPENIEDAYVAVIRPKNTASLNSREYRAKSYEILLHEVPIEGQKKKRKKVLLETKLQGNSEITQGILDYVVETTKPISPANQGIRGKRVVLMKKFPLDGEKMGREASLFIVPSVVKDNTKYTYTPGCPIFYCLQDIMRVCSESSTHFATLTARMLIALDKWLDERHAQSHFIPALFRPSPLERIKTNVINPAYATESGQTENSLHMGYSALEIKSKMLALEKADTCIYNPLFGSDLQYTNRVDKVVINPYFGLGAPDYSKIQIPKQEKWQRSMSSVTEDKERQWVDDFPLHRSACEGDSELLSRLLSERFSVNQLDSDHWAPIHYACWYGKVEATRILLEKGKCNPNLLNGQLSSPLHFAAGGGHAEIVQILLNHPETDRHITDQQGRSPLNICEENKQNNWEEAAKLLKEAINKPYEKVRIYRMDGSYRSVELKHGNNTTVQQIMEGMRLSQETQQYFTIWICSENLSLQLKPYHKPLQHVRDWPEILAELTNLDPQRETPQLFLRRDVRLPLEVEKQIEDPLAILILFDEARYNLLKGFYTAPDAKLITLASLLLQIVYGNYESKKHKQGFLNEENLKSIVPVTKLKSKAPHWTNRILHEYKNLSTSEGVSKEMHHLQRMFLQNCWEIPTYGAAFFTGQIFTKASPSNHKVIPVYVGVNIKGLHLLNMETKALLISLKYGCFMWQLGDTDTCFQIHSMENKMSFIVHTKQAGLVVKLLMKLNGQLMPTERNS [KRIT1] | -0.252 | 0.0145 |
| MNPGFDLSRRNPQEDFELIQRIGSGTYGDVYKARNVNTGELAAIKVIKLEPGEDFAVVQQEIIMMKDCKHPNIVAYFGSYLRRDKLWICMEFCGGGSLQDIYHVTGPLSELQIAYVSRETLQGLYYLHSKGKMHRDIKGANILLTDNGHVKLADFGVSAQITATIAKRKSFIGTPYWMAPEVAAVERKGGYNQLCDLWAVGITAIELAELQPPMFDLHPMRALFLMTKSNFQPPKLKDKMKWSNSFHHFVKMALTKNPKKRPTAEKLLQHPFVTQHLTRSLAIELLDKVNNPDHSTYHDFDDDDPEPLVAVPHRIHSTSRNVREEKTRSEITFGQVKFDPPLRKETEPHHELPDSDGFLDSSEEIYYTARSNLDLQLEYGQGHQGGYFLGANKSLLKSVEEELHQRGHVAHLEDDEGDDDESKHSTLKAKIPPPLPPKPKSIFIPQEMHSTEDENQGTIKRCPMSGSPAKPSQVPPRPPPPRLPPHKPVALGNGMSSFQLNGERDGSLCQQQNEHRGTNLSRKEKKDVPKPISNGLPPTPKVHMGACFSKVFNGCPLKIHCASSWINPDTRDQYLIFGAEEGIYTLNLNELHETSMEQLFPRRCTWLYVMNNCLLSISGKASQLYSHNLPGLFDYARQMQKLPVAIPAHKLPDRILPRKFSVSAKIPETKWCQKCCVVRNPYTGHKYLCGALQTSIVLLEWVEPMQKFMLIKHIDFPIPCPLRMFEMLVVPEQEYPLVCVGVSRGRDFNQVVRFETVNPNSTSSWFTESDTPQTNVTHVTQLERDTILVCLDCCIKIVNLQGRLKSSRKLSSELTFDFQIESIVCLQDSVLAFWKHGMQGRSFRSNEVTQEISDSTRIFRLLGSDRVVVLESRPTDNPTANSNLYILAGHENSY [MAP4K3] | 0.473 | 0.693 |
| MKLPIFIADAFTARAFRGNPAAVCLLENELDEDMHQKIAREMNLSETAFIRKLHPTDNFAQSSCFGLRWFTPASEVPLCGHATLASAAVLFHKIKNMNSTLTFVTLSGELRARRAEDGIVLDLPLYPAHPQDFHEVEDLIKTAIGNTLVQDICYSPDTQKLLVRLSDVYNRSFLENLKVNTENLLQVENTGKVKGLILTLKGEPGGQTQAFDFYSRYFAPWVGVAEDPVTGSAHAVLSSYWSQHLGKKEMHAFQCSHRGGELGISLRPDGRVDIRGGAAVVLEGTLTA [PBLD] | -0.159 | 0.989 |
| MNSMNPMKPALPPAPHGDGSFAYESVPWQQSATQPAGSLSVVTTVWGVGNATQSQVLGNPMGPAGSPSGSSMMPGVAGGSSALTSPQCLGQQAFAEGGANKGYVQQGVYSRGGYPGAPGFTTGYAGGPGGLGLPSHAARPSTDFTQAAAAAAVAAAAATATATATATVAALQEKQSQELSQYGAMGAGQSFNSQFLQHGGPRGPSVPAGMNPTGIGGVMGPSGLSPLAMNPTRAAGMTPLYAGQRLPQHGYPGPPQAQPLPRQGVKRTYSEVYPGQQYLQGGQYAPSTAQFAPSPGQPPAPSPSYPGHRLPLQQGMTQSLSVPGPTGLHYKPTEQFNGQGASFNGGSVSYSQPGLSGPTRSIPGYPSSPLPGNPTPPMTPSSSVPYMSPNQEVKSPFLPDLKPNLNSLHSSPSGSGPCDELRLTFPVRDGVVLEPFRLQHNLAVSNHVFQLRDSVYKTLIMRPDLELQFKCYHHEDRQMNTNWPASVQVSVNATPLTIERGDNKTSHKPLYLKHVCQPGRNTIQITVTACCCSHLFVLQLVHRPSVRSVLQGLLKKRLLPAEHCITKIKRNFSSGTIPGTPGPNGEDGVEQTAIKVSLKCPITFRRIQLPARGHDCRHIQCFDLESYLQLNCERGTWRCPVCNKTALLEGLEVDQYMLGILIYIQNSDYEEITIDPTCSWKPVPVKPDMHIKEEPDGPALKRCRTVSPAHVLMPSVMEMIAALGPGAAPFAPLQPPSVPAPSDYPGQGSSFLGPGTFPESFPPTTPSTPTLAEFTPGPPPISYQSDIPSSLLTSEKSTACLPSQMAPAGHLDPTHNPGTPGLHTSNLGAPPGPQLHHSNPPPASRQSLGQASLGPTGELAFSPATGVMGPPSMSGAGEAPEPALDLLPELTNPDELLSYLGPPDLPTNNNDDLLSLFENN [ZMIZ2] | 0.174 | 0.237 |
| MAGVSACIKYSMFTFNFLFWLCGILILALAIWVRVSNDSQAIFGSEDVGSSSYVAVDILIAVGAIIMILGFLGCCGAIKESRCMLLLFFIGLLLILLLQVATGILGAVFKSKSDRIVNETLYENTKLLSATGESEKQFQEAIIVFQEEFKCCGLVNGAADWGNNFQHYPELCACLDKQRPCQSYNGKQVYKETCISFIKDFLAKNLIIVIGISFGLAVIEILGLVFSMVLYCQIGNK [TSPAN8] | 1.86 | -1.57 |
| MVRFKHRYLLCELVSDDPRCRLSLDDRVLSSLVRDTIARVHGTFGAAACSIGFAVRYLNAYTGIVLLRCRKEFYQLVWSALPFITYLENKGHRYPCFFNTLHVGGTIRTCQKFLIQYNRRQLLILLQNCTDEGEREAIQKSVTRSCLLEEEEESGEEAAEAME [POP5] | -0.00794 | -2.6 |
| MKLVFLVLLFLGALGLCLAGRRRSVQWCAVSQPEATKCFQWQRNMRKVRGPPVSCIKRDSPIQCIQAIAENRADAVTLDGGFIYEAGLAPYKLRPVAAEVYGTERQPRTHYYAVAVVKKGGSFQLNELQGLKSCHTGLRRTAGWNVPIGTLRPFLNWTGPPEPIEAAVARFFSASCVPGADKGQFPNLCRLCAGTGENKCAFSSQEPYFSYSGAFKCLRDGAGDVAFIRESTVFEDLSDEAERDEYELLCPDNTRKPVDKFKDCHLARVPSHAVVARSVNGKEDAIWNLLRQAQEKFGKDKSPKFQLFGSPSGQKDLLFKDSAIGFSRVPPRIDSGLYLGSGYFTAIQNLRKSEEEVAARRARVVWCAVGEQELRKCNQWSGLSEGSVTCSSASTTEDCIALVLKGEADAMSLDGGYVYTAGKCGLVPVLAENYKSQQSSDPDPNCVDRPVEGYLAVAVVRRSDTSLTWNSVKGKKSCHTAVDRTAGWNIPMGLLFNQTGSCKFDEYFSQSCAPGSDPRSNLCALCIGDEQGENKCVPNSNERYYGYTGAFRCLAENAGDVAFVKDVTVLQNTDGNNNEAWAKDLKLADFALLCLDGKRKPVTEARSCHLAMAPNHAVVSRMDKVERLKQVLLHQQAKFGRNGSDCPDKFCLFQSETKNLLFNDNTECLARLHGKTTYEKYLGPQYVAGITNLKKCSTSPLLEACEFLRK [LTF] | -3.21 | -1.19 |
